B1: VHH CLONE 103 (VHH)
VHH: EVQLMESAGGLVRPGGSLRLSCVASGSIGDIYSMGWYRQAPGKQRELVATVGAGGLTDYGDSVLGRFTISRDKTKGTVSLEMNSLKPEDTAVYYCNADVSIGPTGLRVYWGQGTQVTVSS
notes: The entry includes the C-terminal 6xHis and HA tags
B2: VHH CLONE 220 (VHH)
VHH: EVQLVESGGGLVQPGGSLRLSCVASGNIGNIYTMGWYRQAPGKQRELVAAVGAGELTNYVDSVKGRFTISRDKSKGTVSLEMNSLKPEDTAVYYCNADVSIGPTGLRVYWGQGTQVTVSS
notes: The entry includes the C-terminal 6xHis and HA tags; also called nanobody 220
B3: VHH CLONE 302 (VHH)
VHH: QVKLQESGGGLVQPGGSLRLSCVASGNIGDIYTMGWYRQAPGKQRELVATVGDGGLTNFVDSVKGRFTISRDKSKGTVSLEMNSLKPEDTAVYYCNADVRIGPTGLRVYWGQGTQVTVSS
notes: as for B1
B4: VHH CLONE 205 (VHH)
VHH: DVQLQASGGGLVQPGGSLRLSCAATGSTDRIAFMGWYRQAPGKLRELVAGITSDGRTNYADDVDVSGRFTISRDSAKNMVYLQMNSLKPEDTAVYYCNADITLAMGGLRVYWGQGTQVTVSS
notes: as for B1
B5: VHH CLONE 116 (VHH)
VHH: EVQLVESGGGLVQPGGSLRLSCTASGSILKIYTMDWYRQAPGKQRDLVATVSSRGDTDYTDSVKGRFTISRDDAKNTAYLQMSSLKPEDTAVYYCNFYIQSRTAPFNDYWGQGTQVTVSS
notes: as for B1
B6: VHH CLONE 320 (VHH)
VHH: DVQLQASGGGLVQPGGSLRLSCATSTSVFSITTLGWYRQAPGKQRELVASMKRGGDTNYADSVKGRFTISRDNARNTVFLQMNNLTTEDTAVYYCNAAILAYTGAVTNYWGQGTQVTVSS
notes: The entry includes the C-terminal 6xHis and HA tags; also called nanobody 320
B7: VHH CLONE 213 (VHH)
VHH: EVQLVESVGGLVQPGGSLRLSCVASGNIGDIYTMGWYRQAPGKQRELVATVGDGGLTNFVDSVKGRFTISRDKSKGTVSLEMNSLKPEDTAVYYCNADVRIGPTGLRVYWGQGTQVTVSS
notes: as for B1
B8: VHH CLONE 108 (VHH)
VHH: EVQLVESGGGLVQPGGSLRLSCEATGNFDDRGIGWFRQAPGKEREGIACITTRGRTHYAESVEGRFTISTDIANNAVYLQMNSLKPEDTAVYYCAKAIRLTTDRTQCVAFPGVSWGRGTQVTVSS
notes: as for B1

These binders were tested against T1, cystic fibrosis transmembrane conductance regulator (CFTR) inhibitory factor (Cif) (Pseudomonas aeruginosa, UniProt A0A0H2ZD27 25-319) (assay: sandwich ELISA, lower graph: Cif in serial dilution (about 0.05-100 ng/mL) captured on anti-Cif pAb 0.3 ug/well, VHH 50 ng/well, anti-HA mAb detection; the concentration is that of Cif; sheet labels the value IC50, text calls it EC50).
T1 construct: also called CIF protein; Cif-protein
T1 sequence: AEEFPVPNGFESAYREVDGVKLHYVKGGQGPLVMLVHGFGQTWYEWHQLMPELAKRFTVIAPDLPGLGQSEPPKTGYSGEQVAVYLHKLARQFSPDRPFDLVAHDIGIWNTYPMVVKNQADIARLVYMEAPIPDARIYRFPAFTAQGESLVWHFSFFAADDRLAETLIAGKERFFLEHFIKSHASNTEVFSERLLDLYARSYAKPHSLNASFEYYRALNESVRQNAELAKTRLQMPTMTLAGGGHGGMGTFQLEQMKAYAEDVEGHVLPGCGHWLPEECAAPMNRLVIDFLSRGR
Experimental: (§1) 1). Immunoassay. A 96-well plate was coated with pAb at 3 μg/mL, 100 μL per well at RT for 1 h. The plate was blocked with 1% skimmed milk in PBST at RT for at least 2 h. Cif in PBS was loaded on the plate with increasing concentration and incubated for 1 h at RT. Following 5 times wash with PBST, VHH at 0.5 μg/mL in PBS, 100 μL per well (or 50 ng/well) was loaded. The plate was incubated for 1h at RT and then washed 5 times with wash buffer. Mouse anti-HA-HRP conjugate was added at 100 μl/well in a 1:3000 dilution as instructed by manufacturer. The plate was incubated for 1h at RT and washed 5 times. The plate was developed for 10 min with substrate solution added at 100 μl/well. The reaction was stopped by addition of 2M H₂SO₄ (50 μl/well) and absorbance was read at 450 nm. SigmaPlot 11.0 software was used for curve fitting and data analysis.
(§2) To evaluate produced recombinant antibodies, classical sandwich ELISA was performed using purified rabbit polyclonal anti-Cif antibodies as a capturing antibody (FIG. 3). […] Cif protein was loaded in a serial dilution range of 0.05-100 ng/mL and VHHs were added at 50 ng per well.
Binder B1 has an EC50 of 0.0168 µg/mL.
B2 gave an EC50 of 0.0211 µg/mL.
For B3, the EC50 was 0.0172 µg/mL.
For B4, the EC50 was 0.0207 µg/mL.
B5 gave an EC50 of 0.0312 µg/mL.

Each binder was assayed against T1, cystic fibrosis transmembrane … (assay: sandwich ELISA, upper graph: Cif in serial dilution (about 0.05-100 ng/mL) captured on anti-Cif pAb 0.3 ug/well, VHH 50 ng/well, anti-HA mAb detection; the concentration is that of Cif; sheet labels the value IC50, text calls it EC50).
Experimental: as §1, §2
B6 was tested, and the EC50 was 0.0061 µg/mL.
B7 was tested, and the EC50 was 0.011 µg/mL.
For B8, the EC50 was 0.0098 µg/mL.
